Results published in the supplement of paper PMC12042874.
± gives the uncertainty stated by the source.

Test: amyloid nucleation score (Sup35N fusion, yeast selection) (log enrichment); library NNK3; higher = more nucleation; inactive = no reads after selection
Procedure, shortened: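 Yeast lacking psi expressed peptides of 20 random codons fused to Sup35N, received 100 μM copper sulfate for 24 hours, and were then grown for 7 days at 30°C on medium lacking adenine and uracil. Illumina sequencing of input and output plasmid inserts provided the reads. Nucleation scores are DiMSum log enrichments of output over input, centred on the mode of non-aggregating sequences. Any sequence with under 100 input reads was excluded.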

Row | Substance | amyloid nucleation score
1 | SFYNCTEVETHGRRICIFLY | inactive
2 | FSGVLLNVYYGIHYTISIYR | inactive
3 | FIIHHGVYYHAMFMDMLLLM | inactive
4 | WTDVRGMVSSINGRSTSRVP | inactive
5 | VPCMRNFDLYLKSVTDRLDK | inactive
6 | LLTGFLSKVSGQS | inactive
7 | FQRVGRFPSYSTCAGRVATG | inactive
8 | IYKSQMLEFVEVVRSYMPVQ | inactive
9 | YSTRVVRSTPWSKCSSPDME | inactive
10 | KMRFLIALNVTTWGPKLLCG | inactive
11 | IWIGFPFLSSSGGPMYPL | inactive
12 | NVISV | inactive
13 | QSNTLYIKFAAWSYFFSDPE | inactive
14 | LGCREDFCERIGCVLRVMLE | inactive
15 | KRCPWVRNKSVSYLTSKYKL | inactive
16 | IAHPSHGS | 0.432 ± 0.22
17 | SAECSVPEYVHRHKVIWHGL | inactive
18 | TIHYG | inactive
19 | LKIGTFCSNPGSLIVVYLTV | inactive
20 | DNDQNGVREVERGVLTLSSV | inactive
21 | SLKFIELDMSIVVMSSDYFR | inactive
22 | FKFKERDHEWYVWFKLKHKS | inactive
23 | ISGHGMKAVMSVDHSLY | inactive

Row | Substance | amyloid nucleation score
24 | FFWKILALPSE | inactive
25 | YRPVQSVQIVHLLSILILVW | inactive
26 | FLNKITNVSIYLIGTRETDV | 2.81 ± 0.064
27 | KTACFLVNCLNYQRAERTLR | 1.23 ± 0.18
28 | YPGTASAG | inactive
29 | ANVLFEVSACLAKGIVKVRR | inactive
30 | FGSPWPRLQMTQLLIVAMTL | inactive
31 | TDRRKK | inactive
32 | NVQRNVNAE | inactive
33 | THRFVVLCEIITNPTEMGSG | 0.703 ± 0.35
34 | ALAMTFVNIDKSFFFNVYSM | 2.89 ± 0.069
35 | VFRAGWPVWALDYELYSVRA | inactive
36 | MVKCQWGFRL | 1.33 ± 0.12
37 | FCRHVKFYRMRAACVDNRRI | inactive
38 | IGITHFRTCDGHNVRGRNRW | inactive
39 | EGHHPVGGGLLIFASLT | inactive
40 | NQTGSSRTSCCMDRWLMYIA | inactive
41 | TSCGISSSAGFSVFMSEGAK | 0.692 ± 0.13
42 | PDMSNIQTFWDSRVMGRTR | inactive
43 | RWCDA | -0.041 ± 0.31
44 | DITRMVNNKFIWSSVSGLAC | inactive
45 | GWKAPLTLRRTLSALDFVLY | 0.371 ± 0.38
46 | MVLYRFCIVIHWTCTV | inactive

Row | Substance | amyloid nucleation score
47 | SQLLYI | inactive
48 | TWISITWTWPWKKWVLNLRY | inactive
49 | CEDGA | -0.068 ± 0.75
50 | PYSKELVHVTSSSATFTRCE | inactive
51 | LLLIFS | inactive
52 | WVVQE | -0.553 ± 0.93
53 | FLLVR | inactive
54 | KLPSEISKNYT | inactive
55 | SRPAYSRRFMLTGDITVIKL | 1.66 ± 0.071
56 | TNRIHPFERVLFVCVSGQGV | inactive
57 | IMRMRLVCWTYKYNSLLPFV | inactive
58 | CCKTFYY | inactive
59 | TLFLFIMVMGYSLANLVDSS | inactive
60 | QAIQPSMQGLWQRALTSRSP | inactive
61 | NIRWMFNLYACRLLRLVHF | 0.44 ± 0.23
62 | IVWPIIRAHS | -0.313 ± 0.93
63 | ARMLRYRHIAS | inactive
64 | IWPWSFALIMS | inactive
65 | FCLCAFSALQRVYI | inactive
66 | IKFGLTYSRSTMSGHSLKGY | inactive
67 | DVYGDGCSCYSVKYTCDRCQ | inactive
68 | NINSTFQRQVLSDCLVQWYM | inactive
69 | VNATDRSVSFLHKGPALDSN | inactive

Row | Substance | amyloid nucleation score
70 | GLWRLSCKSYAWHF | inactive
71 | GHVIMGLSGYGSLASLFKTG | inactive
72 | YFGFYSLWYKYYVTSISRSL | inactive
73 | IGCEQDADNYNRSWWIWMKF | inactive
74 | PRMRFILGFVIIEKENDRVK | -0.431 ± 0.62
75 | FMVCCICGKYGMMVSC | inactive
76 | SVYNSYWKVQYRVVMS | 0.506 ± 0.21
77 | LSFYISPS | 0.748 ± 0.1
78 | KVSMPISHTQSLPVVTARCH | inactive
79 | VNLPFNDKYHLVFIGMA | inactive
80 | EFLPSCICDGKFISSLVCEP | inactive
81 | VRDCTSQLINDGNNLVPGMW | inactive
82 | QATFGWTANSSLFFSRDFLA | inactive
83 | MCLVFKTEIRGLKAFCMCSF | inactive
84 | RYNRDGMTYMSISFPRGPYL | 1.27 ± 0.12
85 | TPSGCAFNHCVMGTGDFQYM | 2.38 ± 0.073
86 | ISTIRYNISYANAYYSSRQG | 0.699 ± 0.21
87 | VYISESVQRMYSLCTFSSLD | 1.18 ± 0.085
88 | RTVELEIHGLHV | inactive
89 | CVGYMGLGALEYIVNAHGGI | inactive
90 | IYAQELLSVANLLRFL | inactive
91 | DSCQKVVWIGSGEVRKAWRY | inactive
92 | TDTIKSVVYVSVLDGDYNSG | inactive

Row | Substance | amyloid nucleation score
93 | DFSSCCDHPFIVI | 0.346 ± 0.75
94 | PLSNGELFRNATLNDGIWGE | inactive
95 | KIYQYPVGRLGNCSGLHVWT | inactive
96 | VYHFSGWCRHSCSSLQKSHD | inactive
97 | GVWKLVSRARNDSINLR | inactive
98 | QILFTQILLNSGEEGLSFVS | 0.479 ± 0.18
99 | TRISTG | inactive
100 | HMFSGVG | inactive
101 | TAVKTGGLLRVVALGNSLNA | 0.399 ± 0.24
102 | RCFVPINGK | inactive
103 | TRFSVDVRIFWIINYFLWLL | inactive
104 | NCYNQYRSSWRLTCCLF | 3.34 ± 0.064
105 | STRTWQRF | -0.014 ± 0.28
106 | CSRSKNNTFRHSLWFHRYYA | inactive
107 | FFCRKAHLMVVFFSSMRMTG | inactive
108 | MILCCNRRLFGRRSLANLCW | inactive
109 | CRGGNFRPMEGATVNPLFEG | inactive
110 | PFPFSNLLERV | 0.364 ± 0.34
111 | FYLALIYNICFADRKLVGVC | inactive
112 | RENSKFFLIRC | inactive
113 | NLYMDEHHFKAFNGCTNQLI | inactive
114 | ACSLSWCHTGCY | inactive
115 | DGHKCCTG | inactive

Row | Substance | amyloid nucleation score
116 | RHGKIAAS | inactive
117 | SPRVSMYMSSQKGLEPWESV | inactive
118 | RPAHVIICYNLSYCNKWLHS | 2.04 ± 0.071
119 | MCMSVCFSK | inactive
120 | LSPARQLTLLGDKNPANNIL | inactive
121 | FLETVSFPMKVWSL | inactive
122 | RYVIV | inactive
123 | TYVARIVN | inactive
124 | KYSYFFVRKTMLDCSFTEAW | 0.771 ± 0.19
125 | GYTIYGRVNPLVCPWVLVSE | inactive
126 | SVHWSINWTGLERVSRTQRL | 0.523 ± 0.24
127 | CYGKTGSCFSVLHGWGGFVM | inactive
128 | SLMSFRYLRTFKWRSMSILS | inactive
129 | GAFCSND | inactive
130 | YFGKAMHLLGYSFETGLDWS | inactive
131 | LTLISGIAFLCLLLDNHNTV | inactive
132 | LVPFLVDIHVGWDISLKVVR | inactive
133 | PDLITLIFGSHFGKCSFISY | inactive
134 | RCLYTCPYADFSEPNSNLRQ | inactive
135 | LDFVYCNAVFWTLNGFLNCA | 1.78 ± 0.078
136 | RCQRVGI | inactive
137 | GNISIWGFRNSWALDLIAGY | inactive
138 | TAREMYSRKSRILRVILILS | inactive

Row | Substance | amyloid nucleation score
139 | KNTISCPCWYINRCLVYNNI | 0.97 ± 0.17
140 | SFGSFMSHDEFSNVHSVGFP | inactive
141 | FMAQPSLIGLFRSQS | inactive
142 | SDGSNKVLESRCDSLHNVIV | inactive
143 | NIAIVW | inactive
144 | CVDYKRMNGFKCTLDVFRAI | 0.184 ± 0.61
145 | GTFNIDVEVMVYRAGLFKHV | inactive
146 | YSGIRVLFYFSISDDFSQSI | 0.756 ± 0.24
147 | GRGVDWMKQWNVHRKVLSSL | inactive
148 | IFVVP | inactive
149 | LIRPDCEDTRFCIRSWDCQG | inactive
150 | ACFWLIDVTKWLTCYRRSSN | inactive
151 | ILSLTFCVRRGEHGMASFCL | 0.07 ± 0.46
152 | GPVLGSCIRRH | inactive
153 | FVDLHCSYRCIYGCCHFRIR | inactive
154 | ACAATYLIADAFYELSGIGL | inactive
155 | RTLTSDTHIRFLDQLSRYIW | inactive
156 | ACSNWMRLMLVWNSTRNRVV | inactive
157 | LFDILGMYEDMASVGFCIPQ | inactive
158 | HCNEYSGNVVSRG | inactive
